Results: patent US20120231013A1 (Amgen, published 2012)
Residue numbers refer to the chain shown, from its start. Where “and” joins values, the source holds several entries; their conditions need not be identical. Identical values can stand only once.

T1: recombinant human TIMP-3 (human, UniProt P35625 24-211)
T1 construct: also called HuTIMP-3; huTIMP-3
T1 sequence (looked up): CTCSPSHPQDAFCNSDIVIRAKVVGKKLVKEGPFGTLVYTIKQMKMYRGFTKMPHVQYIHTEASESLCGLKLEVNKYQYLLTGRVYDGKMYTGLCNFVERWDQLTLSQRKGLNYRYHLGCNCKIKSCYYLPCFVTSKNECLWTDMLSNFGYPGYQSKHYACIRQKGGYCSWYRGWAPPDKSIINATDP

T2: recombinant mouse TIMP-3 (mouse, UniProt P39876 24-211)
T2 construct: also called MuTIMP-3
T2 sequence (looked up): T1 sequence (looked up) with T51S, D87E, Q103H, I183S

B1: LRP-1 peptide LA15 (peptide)
chain: not shown
notes: The end 2733 is inferred from the start of LA16 (2734)
B2: LRP-1 peptide LA3-4 (peptide)
chain: not shown
notes: Tags implied (Ni-NTA, anti-HA detection), not described
B3: LRP-1 peptide LA25-26 (peptide)
chain: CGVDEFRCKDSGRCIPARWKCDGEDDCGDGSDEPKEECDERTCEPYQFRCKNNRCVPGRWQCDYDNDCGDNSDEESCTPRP
B4: LRP-1 peptide LA24-25 (peptide)
chain: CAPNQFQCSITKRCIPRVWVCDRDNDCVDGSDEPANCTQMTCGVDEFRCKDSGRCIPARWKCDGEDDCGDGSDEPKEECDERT
notes: as for B2
B5: LRP-1 peptide LA24 (peptide)
chain: not shown
notes: as for B2
B6: LRP-1 peptide LA25 (peptide)
chain: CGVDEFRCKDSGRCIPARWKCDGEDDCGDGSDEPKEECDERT
notes: as for B2
B7: LRP-1 peptide LA15-17 (peptide)
chain: CPLNYFACPSGRCIPMSWTCDKEDDCEHGEDETHCNKFCSEAQFECQNHRCISKQWLCDGSDDCGDGSDEAAHCEGKTCGPSSFSCPGTHVCVPERWLCDGDKDCADGADESIAAGCLYNST
notes: The end 2817 is inferred from the end of LA17
B8: LRP-1 peptide LA4 (peptide)
chain: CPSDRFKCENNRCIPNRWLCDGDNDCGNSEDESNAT
notes: as for B2
B9: LRP-1 peptide LA8-10 (peptide)
chain: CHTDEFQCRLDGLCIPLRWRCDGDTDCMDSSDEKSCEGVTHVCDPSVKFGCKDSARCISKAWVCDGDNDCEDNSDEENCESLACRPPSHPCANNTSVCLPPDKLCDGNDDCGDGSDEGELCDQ
notes: The end 1184 is inferred from the end of Cluster II; Tags implied, not described
B10: LRP-1 peptide LA5-6 (peptide)
chain: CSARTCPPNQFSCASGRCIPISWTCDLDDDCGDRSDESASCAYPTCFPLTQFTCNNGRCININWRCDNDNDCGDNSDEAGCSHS
notes: as for B2

Target: T1, recombinant human TIMP-3
Experiment: direct ELISA, coated huTIMP-3
Procedure: (§1) After incubation, the coating solution is removed and replaced with 250 microL/well of blocking buffer (1% BSA, TBS [pH 7.5], 1 mM CaCl₂) and incubated with shaking for 1 hour at room temperature. The plates are then washed three times with 200 microL/well with wash buffer 1 (TBS [pH 7.5], 1 mM CaCl₂). The LRP-1 peptides are titrated in assay buffer (0.1% BSA, TBS [pH 7.5], 1 mM CaCl₂, 0.02% Tween-20) in a separate polypropylene non-treated round-bottom 96-well plate (BD Falcon™) starting at 1 microM concentration and then diluted serially 4-fold for 8-points, with the last point buffer only. Then 100 microL/well of the diluted LRP-1 peptide titration is added to the TIMP-3 coated plate and allowed to bind for 1.5 hour at room temperature with shaking. After incubation, the plate is washed three times with 200 microL/well of wash buffer 2 (TBS [pH 7.5], 1 mM CaCl₂, 0.02% Tween-20). […] The assay plate is then washed three times with 200 microL/well with wash buffer 2. The plate is developed by adding 100 microL/well of 1:1 mixture of TMB and H₂O₂ (Pierce, Fisher Thermo Scientific, Rockford Il.), the reaction is stopped by adding 100 microL/well 2NH₂SO₄ (VWR), and read on a SpectraMax microplate reader (Molecular Devices, Sunnyvale, Calif.) at OD450 nm using SOFTmax Pro software version 3.1.2. Data is analyzed using GraphPad Prism 4.01 software. Binding of LRP-1 peptides to TIMP-3 is expressed as binding EC50.

| EC50 | Binder |
| --- | --- |
| 901 nM | B1 |
| 226 nM | B2 |
| 167 nM and 99 nM | B3 |
| 162 nM | B4 |
| 68 nM | B5 |
| 742 nM | B6 |
| 510 nM | B7 |

Target: T2, recombinant mouse TIMP-3
Experiment: direct ELISA, coated muTIMP-3
Procedure: as §1

| EC50 | Binder | binding result |
| --- | --- | --- |
| – | B8 | no binding (tested: titration from 1 microM) |
| 155 nM | B2 | – |
| 117 nM and 80 nM | B3 | – |
| 124 nM | B4 | – |
| 696 nM | B9 | – |
| 66 nM | B5 | – |
| 332 nM | B10 | – |
| 306 nM | B7 | – |

Target: T3, recombinant TIMP-3 (human or mouse; Table 2 does not say which)
T3 construct: The methods say 'human or mouse TIMP-3'
Experiment: binding ELISA, Assay 1

| EC50 | Binder |
| --- | --- |
| 193 nM | B7 |

Target: T1, recombinant human TIMP-3
Experiment: indirect ELISA, huTIMP-3 captured by anti-TIMP-3 clone 277128
Procedure: Then 100 microL/well of the diluted LRP-1 peptide titration is added to the TIMP-3 coated plate and allowed to bind for 1.5 hour at room temperature with shaking. After incubation, the plate is washed three times with 200 microL/well of wash buffer 2 (TBS [pH 7.5], 1 mM CaCl₂, 0.02% Tween-20). […] The assay plate is then washed three times with 200 microL/well with wash buffer 2. The plate is developed by adding 100 microL/well of 1:1 mixture of TMB and H₂O₂ (Pierce, Fisher Thermo Scientific, Rockford Il.), the reaction is stopped by adding 100 microL/well 2NH₂SO₄ (VWR), and read on a SpectraMax microplate reader (Molecular Devices, Sunnyvale, Calif.) at OD450 nm using SOFTmax Pro software version 3.1.2. Data is analyzed using GraphPad Prism 4.01 software. Binding of LRP-1 peptides to TIMP-3 is expressed as binding EC50.
After incubation, the plate contents are discarded and 250 microL/well of blocking buffer (1% BSA, TBS [pH 7.5], 1 mM CaCl₂) is added to the plate which is incubated with shaking for 1 hour at room temperature. The plate is then washed three times with 200 microL/well with wash buffer 1 (TBS [pH 7.5], 1 mM CaCl₂) followed by the addition of 100 microL of 20 nM recombinant human TIMP-3. The plate is incubated at room temperature for 1 hour. The LRP-1 peptides are titrated as described previously, and 100 microL/well of the diluted LRP-1 peptide titration is added to the TIMP-3 coated plate and allowed to bind for 1.5 hour at room temperature with shaking. After incubation, the plate is washed and the ELISA performed substantially as described previously for the direct binding ELISA.

| EC50 | Binder |
| --- | --- |
| 378 nM | B1 |
| 81 nM | B2 |
| 41 nM and 20 nM | B3 |
| 32 nM | B4 |
| 219 nM | B9 |
| 10 nM | B5 |
| 447 nM | B6 |
| 78 nM | B10 |
| 100 nM | B7 |

Target: T3, recombinant TIMP-3 (human or mouse; …)
Experiment: AlphaScreen, biotinylated TIMP-3, Assay 1
Procedure: (§2) Peptides were also evaluated by AlphaScreen® (Amplified Luminescent Proximity Homogeneous Assay; PerkinElmer, Waltham, Mass.) a very sensitive non-radioactive homogeneous assay technology that allows the screening of a large range of biological interactions and activities, substantially according to the manufacturer's instructions. Briefly, all dilutions are made in AlphaScreen® Buffer: [40 mM HEPES pH 7.5, 100 mM NaCl, 1 mM CaCl2, 0.1% BSA, 0.05% Tween-20]. The LRP-1 peptides are titrated in a separate polypropylene 96-well plate (Falcon) starting at 4 microM concentration and then diluted serially 3-fold for 12-points, with the last point buffer only. First 2 microL/well of protein titration curve is added to white, small volume, 384-well assay plate (Greiner Bio-One, Stonehouse, UK) in duplicate. Next, 2 microL of biotinylated (AFS, in-house conjmicroGation) recombinant human or mouse TIMP-3, is added at 12 nM (or 3 nM final assay concentration) to the assay plate. Lastly, in subdued light 4 microL of a mixture of streptavidin donor beads, anti-mouse IgG acceptor beads (PerkinElmer) both diluted to 20 microG/mL (10 microG/mL final assay concentration) and 2 nM (1 nM final concentration) rat-anti-HA (clone3F10)-HRP (Roche Diagnostics) is added to the plates. Plates containing 8 microL final assay volme are covered with TopSeal A (to prevent evaporation), spun quickly at 1000 rpm, and incubated overnight (covered with foil to prevent light exposure) before reading on Fusion plate reader (PerkinElmer) using AlphaScreen® parameters (excitation 680 nm and emission 520-620 nm). Data is analyzed using GraphPad Prism 4.01 software. Binding to TIMP-3 is reported as total signal (cps).

| total signal (cps) | Binder |
| --- | --- |
| 2200 cps | B8 |
| 2200 cps | B1 |
| 9000 cps | B2 |
| 20000 cps | B3 |
| 290000 cps | B4 |
| 110000 cps | B9 |
| 2200 cps | B5 |
| 5000 cps | B6 |
| 6000 cps | B10 |
| 90000 cps | B7 |

Target: T3, recombinant TIMP-3 (human or mouse; …)
Experiment: binding ELISA, Assay 3

| EC50 | Binder |
| --- | --- |
| ~3000 nM | B8 |
| ~1500 nM | B1 |
| 500 nM | B2 |
| 436 nM | B4 |
| 657 nM and 1040 nM | B9 |
| ~1000 nM | B5 |
| ~1000 nM | B6 |
| 512 nM | B10 |
| 191 nM | B7 |

Target: MMP-13 (UniProt P45452 20-471, limits assumed)
Experiment: cell-based or functional assay

| Direct Inhibition of MMP13 (% decrease), 1000 nM | Binder |
| --- | --- |
| 61% | B1 |
| -6% | B9 |
| -22% | B5 |
| 16% | B10 |

Target: T1, recombinant human TIMP-3
Experiment: cell-based or functional assay

| % of the inhibitory activity of TIMP-3 + peptide compared to TIMP-3 alone, 16 nM | % of the inhibitory activity of TIMP-3 + peptide compared to TIMP-3 alone, 80 nM | % of the inhibitory activity of TIMP-3 + peptide compared to TIMP-3 alone, 400 nM | % of the inhibitory activity of TIMP-3 + peptide compared to TIMP-3 alone, 2000 nM | Binder |
| --- | --- | --- | --- | --- |
| 104% | 95% | 67% | 58% | B1 |
| 104% | – | 84% | 91% | B2 |
| 97% | 101% | 105% | 101% | B3 |
| 90% | 88% | 87% | 92% | B4 |
| 94% | 89% | 84% | 93% | B9 |
| 104% | 104% | – | 81% | B5 |
| 96% | 95% | 94% | 94% | B6 |
| 97% | 80% | 72% | 65% | B10 |
| 95% | 82% | 83% | 91% | B7 |

Target: T3, recombinant TIMP-3 (human or mouse; …)
Experiment: binding ELISA, Assay 2

| EC50 | Binder |
| --- | --- |
| 900 nM | B8 |
| ~5000 nM | B1 |
| 289 nM | B2 |
| 673 nM | B3 |
| 211 nM | B4 |
| ~500 nM | B5 |
| 1220 nM | B6 |
| 400 nM | B10 |

Target: T3, recombinant TIMP-3 (human or mouse; …)
Experiment: AlphaScreen, biotinylated TIMP-3, Assay 2
Procedure: as §2

| total signal (cps) | Binder |
| --- | --- |
| 2000 cps | B8 |
| 2000 cps | B1 |
| 3500 cps | B2 |
| 5000 cps | B3 |
| 130000 cps | B4 |
| 100000 cps | B9 |
| 2000 cps | B5 |
| 2000 cps | B6 |
| 4000 cps | B10 |
| 70000 cps | B7 |
